Reference: patent US20160272693A1 (ZEALAND PHARMA A S, published 2016)
*1 amine or outer side, *2 acyl side, *3 side chain or, on linkers, in order; H or OH if unused. Bridges are numbered along the chain shown (N, C = ends). [ ]: non-standard residue; d: D form. The star is where a group is joined. C20 diacid = O=C(O)CCCCCCCCCCCCCCCCCCC(=O)*; γGlu = O=C(O)[C@H](CCC(=O)[*:2])N[*:1]; Hyp = O=C(O)[C@@H]1C[C@@H](O)CN1; NMeI = CC[C@H](C)[C@H](NC)C(=O)O; Sar = CNCC(=O)O

B1: [19CD]-isoGlu-R-C( )-PTAT-C( )-ATDRLAHFLHRSSF-Gly(Me)-A-Ile(Me)-LSSTDVGSNTP-NH2 (Compd. 25) (peptide)
peptide: {C20 diacid}-[γGlu]RCPTATCATDRLAHFLHRSSF[Sar]A[NMeI]LSSTDVGSNTP-NH2
modifications: disulfide 3-8
SMILES: CC[C@H](C)[C@@H](C(=O)N[C@@H](CC(C)C)C(=O)N[C@@H](CO)C(=O)N[C@@H](CO)C(=O)N[C@H](C(=O)N[C@@H](CC(=O)O)C(=O)N[C@H](C(=O)NCC(=O)N[C@@H](CO)C(=O)N[C@@H](CC(N)=O)C(=O)N[C@H](C(=O)N1CCC[C@H]1C(N)=O)[C@@H](C)O)C(C)C)[C@@H](C)O)N(C)C(=O)[C@H](C)NC(=O)CN(C)C(=O)[C@H](Cc1ccccc1)NC(=O)[C@H](CO)NC(=O)[C@H](CO)NC(=O)[C@H](CCCNC(=N)N)NC(=O)[C@H](Cc1c[nH]cn1)NC(=O)[C@H](CC(C)C)NC(=O)[C@H](Cc1ccccc1)NC(=O)[C@H](Cc1c[nH]cn1)NC(=O)[C@H](C)NC(=O)[C@H](CC(C)C)NC(=O)[C@H](CCCNC(=N)N)NC(=O)[C@H](CC(=O)O)NC(=O)[C@@H](NC(=O)[C@H](C)NC(=O)[C@@H]1CSSC[C@H](NC(=O)[C@H](CCCNC(=N)N)NC(=O)CC[C@H](NC(=O)CCCCCCCCCCCCCCCCCCC(=O)O)C(=O)O)C(=O)N2CCC[C@H]2C(=O)N[C@@H]([C@@H](C)O)C(=O)N[C@@H](C)C(=O)N[C@@H]([C@@H](C)O)C(=O)N1)[C@@H](C)O
B2: [19CD]-isoGlu-R-C( )-GTAT-C( )-ATERLAHFLHRSSF-Gly(Me)-A-Ile(Me)-LSSTEVGSETP-NH2 (Compd. 26) (peptide)
peptide: {C20 diacid}-[γGlu]RCGTATCATERLAHFLHRSSF[Sar]A[NMeI]LSSTEVGSETP-NH2
modifications: disulfide 3-8
SMILES: CC[C@H](C)[C@@H](C(=O)N[C@@H](CC(C)C)C(=O)N[C@@H](CO)C(=O)N[C@@H](CO)C(=O)N[C@H](C(=O)N[C@@H](CCC(=O)O)C(=O)N[C@H](C(=O)NCC(=O)N[C@@H](CO)C(=O)N[C@@H](CCC(=O)O)C(=O)N[C@H](C(=O)N1CCC[C@H]1C(N)=O)[C@@H](C)O)C(C)C)[C@@H](C)O)N(C)C(=O)[C@H](C)NC(=O)CN(C)C(=O)[C@H](Cc1ccccc1)NC(=O)[C@H](CO)NC(=O)[C@H](CO)NC(=O)[C@H](CCCNC(=N)N)NC(=O)[C@H](Cc1c[nH]cn1)NC(=O)[C@H](CC(C)C)NC(=O)[C@H](Cc1ccccc1)NC(=O)[C@H](Cc1c[nH]cn1)NC(=O)[C@H](C)NC(=O)[C@H](CC(C)C)NC(=O)[C@H](CCCNC(=N)N)NC(=O)[C@H](CCC(=O)O)NC(=O)[C@@H](NC(=O)[C@H](C)NC(=O)[C@@H]1CSSC[C@H](NC(=O)[C@H](CCCNC(=N)N)NC(=O)CC[C@H](NC(=O)CCCCCCCCCCCCCCCCCCC(=O)O)C(=O)O)C(=O)NCC(=O)N[C@@H]([C@@H](C)O)C(=O)N[C@@H](C)C(=O)N[C@@H]([C@@H](C)O)C(=O)N1)[C@@H](C)O
B3: [19CD]-isoGlu-R-C( )-GTAT-C( )-ATERLAHFLVRSSF-Gly(Me)-A-Ile(Me)-LSSTEVGSETP-NH2 (Compd. 22) (peptide)
peptide: {C20 diacid}-[γGlu]RCGTATCATERLAHFLVRSSF[Sar]A[NMeI]LSSTEVGSETP-NH2
modifications: disulfide 3-8
SMILES: CC[C@H](C)[C@@H](C(=O)N[C@@H](CC(C)C)C(=O)N[C@@H](CO)C(=O)N[C@@H](CO)C(=O)N[C@H](C(=O)N[C@@H](CCC(=O)O)C(=O)N[C@H](C(=O)NCC(=O)N[C@@H](CO)C(=O)N[C@@H](CCC(=O)O)C(=O)N[C@H](C(=O)N1CCC[C@H]1C(N)=O)[C@@H](C)O)C(C)C)[C@@H](C)O)N(C)C(=O)[C@H](C)NC(=O)CN(C)C(=O)[C@H](Cc1ccccc1)NC(=O)[C@H](CO)NC(=O)[C@H](CO)NC(=O)[C@H](CCCNC(=N)N)NC(=O)[C@@H](NC(=O)[C@H](CC(C)C)NC(=O)[C@H](Cc1ccccc1)NC(=O)[C@H](Cc1c[nH]cn1)NC(=O)[C@H](C)NC(=O)[C@H](CC(C)C)NC(=O)[C@H](CCCNC(=N)N)NC(=O)[C@H](CCC(=O)O)NC(=O)[C@@H](NC(=O)[C@H](C)NC(=O)[C@@H]1CSSC[C@H](NC(=O)[C@H](CCCNC(=N)N)NC(=O)CC[C@H](NC(=O)CCCCCCCCCCCCCCCCCCC(=O)O)C(=O)O)C(=O)NCC(=O)N[C@@H]([C@@H](C)O)C(=O)N[C@@H](C)C(=O)N[C@@H]([C@@H](C)O)C(=O)N1)[C@@H](C)O)C(C)C
B4: [19CD]-isoGlu-R-C( )-PTAT-C( )-ATDRLAHFLHRSSF-Gly(Me)-A-Ile(Me)-LSSTDVGSDTP-NH2 (Compd. 27) (peptide)
peptide: {C20 diacid}-[γGlu]RCPTATCATDRLAHFLHRSSF[Sar]A[NMeI]LSSTDVGSDTP-NH2
modifications: disulfide 3-8
SMILES: CC[C@H](C)[C@@H](C(=O)N[C@@H](CC(C)C)C(=O)N[C@@H](CO)C(=O)N[C@@H](CO)C(=O)N[C@H](C(=O)N[C@@H](CC(=O)O)C(=O)N[C@H](C(=O)NCC(=O)N[C@@H](CO)C(=O)N[C@@H](CC(=O)O)C(=O)N[C@H](C(=O)N1CCC[C@H]1C(N)=O)[C@@H](C)O)C(C)C)[C@@H](C)O)N(C)C(=O)[C@H](C)NC(=O)CN(C)C(=O)[C@H](Cc1ccccc1)NC(=O)[C@H](CO)NC(=O)[C@H](CO)NC(=O)[C@H](CCCNC(=N)N)NC(=O)[C@H](Cc1c[nH]cn1)NC(=O)[C@H](CC(C)C)NC(=O)[C@H](Cc1ccccc1)NC(=O)[C@H](Cc1c[nH]cn1)NC(=O)[C@H](C)NC(=O)[C@H](CC(C)C)NC(=O)[C@H](CCCNC(=N)N)NC(=O)[C@H](CC(=O)O)NC(=O)[C@@H](NC(=O)[C@H](C)NC(=O)[C@@H]1CSSC[C@H](NC(=O)[C@H](CCCNC(=N)N)NC(=O)CC[C@H](NC(=O)CCCCCCCCCCCCCCCCCCC(=O)O)C(=O)O)C(=O)N2CCC[C@H]2C(=O)N[C@@H]([C@@H](C)O)C(=O)N[C@@H](C)C(=O)N[C@@H]([C@@H](C)O)C(=O)N1)[C@@H](C)O
B5: [19CD]-isoGlu-R-C( )-PTAT-C( )-ATDRLAHFLVRSSF-Gly(Me)-A-Ile(Me)-LSSTDVGSDTP-NH2 (Compd. 23) (peptide)
peptide: {C20 diacid}-[γGlu]RCPTATCATDRLAHFLVRSSF[Sar]A[NMeI]LSSTDVGSDTP-NH2
modifications: disulfide 3-8
SMILES: CC[C@H](C)[C@@H](C(=O)N[C@@H](CC(C)C)C(=O)N[C@@H](CO)C(=O)N[C@@H](CO)C(=O)N[C@H](C(=O)N[C@@H](CC(=O)O)C(=O)N[C@H](C(=O)NCC(=O)N[C@@H](CO)C(=O)N[C@@H](CC(=O)O)C(=O)N[C@H](C(=O)N1CCC[C@H]1C(N)=O)[C@@H](C)O)C(C)C)[C@@H](C)O)N(C)C(=O)[C@H](C)NC(=O)CN(C)C(=O)[C@H](Cc1ccccc1)NC(=O)[C@H](CO)NC(=O)[C@H](CO)NC(=O)[C@H](CCCNC(=N)N)NC(=O)[C@@H](NC(=O)[C@H](CC(C)C)NC(=O)[C@H](Cc1ccccc1)NC(=O)[C@H](Cc1c[nH]cn1)NC(=O)[C@H](C)NC(=O)[C@H](CC(C)C)NC(=O)[C@H](CCCNC(=N)N)NC(=O)[C@H](CC(=O)O)NC(=O)[C@@H](NC(=O)[C@H](C)NC(=O)[C@@H]1CSSC[C@H](NC(=O)[C@H](CCCNC(=N)N)NC(=O)CC[C@H](NC(=O)CCCCCCCCCCCCCCCCCCC(=O)O)C(=O)O)C(=O)N2CCC[C@H]2C(=O)N[C@@H]([C@@H](C)O)C(=O)N[C@@H](C)C(=O)N[C@@H]([C@@H](C)O)C(=O)N1)[C@@H](C)O)C(C)C
B6: [19CD]-isoGlu-R-C( )-NTAT-C( )-ATQRLAHFLVRSSF-Gly(Me)-A-Ile(Me)-LSSTEVGSETP-NH2 (Compd. 24) (peptide)
peptide: {C20 diacid}-[γGlu]RCNTATCATQRLAHFLVRSSF[Sar]A[NMeI]LSSTEVGSETP-NH2
modifications: disulfide 3-8
SMILES: CC[C@H](C)[C@@H](C(=O)N[C@@H](CC(C)C)C(=O)N[C@@H](CO)C(=O)N[C@@H](CO)C(=O)N[C@H](C(=O)N[C@@H](CCC(=O)O)C(=O)N[C@H](C(=O)NCC(=O)N[C@@H](CO)C(=O)N[C@@H](CCC(=O)O)C(=O)N[C@H](C(=O)N1CCC[C@H]1C(N)=O)[C@@H](C)O)C(C)C)[C@@H](C)O)N(C)C(=O)[C@H](C)NC(=O)CN(C)C(=O)[C@H](Cc1ccccc1)NC(=O)[C@H](CO)NC(=O)[C@H](CO)NC(=O)[C@H](CCCNC(=N)N)NC(=O)[C@@H](NC(=O)[C@H](CC(C)C)NC(=O)[C@H](Cc1ccccc1)NC(=O)[C@H](Cc1c[nH]cn1)NC(=O)[C@H](C)NC(=O)[C@H](CC(C)C)NC(=O)[C@H](CCCNC(=N)N)NC(=O)[C@H](CCC(N)=O)NC(=O)[C@@H](NC(=O)[C@H](C)NC(=O)[C@@H]1CSSC[C@H](NC(=O)[C@H](CCCNC(=N)N)NC(=O)CC[C@H](NC(=O)CCCCCCCCCCCCCCCCCCC(=O)O)C(=O)O)C(=O)N[C@@H](CC(N)=O)C(=O)N[C@@H]([C@@H](C)O)C(=O)N[C@@H](C)C(=O)N[C@@H]([C@@H](C)O)C(=O)N1)[C@@H](C)O)C(C)C
B7: [19CD]-isoGlu-R-C( )-GTAT-C( )-ATERLAHFLQRSSF-Gly(Me)-A-Ile(Me)-LSSTEVGSST-Hyp-NH2 (Compd. 28) (peptide)
peptide: {C20 diacid}-[γGlu]RCGTATCATERLAHFLQRSSF[Sar]A[NMeI]LSSTEVGSST[Hyp]-NH2
modifications: disulfide 3-8
SMILES: CC[C@H](C)[C@@H](C(=O)N[C@@H](CC(C)C)C(=O)N[C@@H](CO)C(=O)N[C@@H](CO)C(=O)N[C@H](C(=O)N[C@@H](CCC(=O)O)C(=O)N[C@H](C(=O)NCC(=O)N[C@@H](CO)C(=O)N[C@@H](CO)C(=O)N[C@H](C(=O)N1C[C@H](O)C[C@H]1C(N)=O)[C@@H](C)O)C(C)C)[C@@H](C)O)N(C)C(=O)[C@H](C)NC(=O)CN(C)C(=O)[C@H](Cc1ccccc1)NC(=O)[C@H](CO)NC(=O)[C@H](CO)NC(=O)[C@H](CCCNC(=N)N)NC(=O)[C@H](CCC(N)=O)NC(=O)[C@H](CC(C)C)NC(=O)[C@H](Cc1ccccc1)NC(=O)[C@H](Cc1c[nH]cn1)NC(=O)[C@H](C)NC(=O)[C@H](CC(C)C)NC(=O)[C@H](CCCNC(=N)N)NC(=O)[C@H](CCC(=O)O)NC(=O)[C@@H](NC(=O)[C@H](C)NC(=O)[C@@H]1CSSC[C@H](NC(=O)[C@H](CCCNC(=N)N)NC(=O)CC[C@H](NC(=O)CCCCCCCCCCCCCCCCCCC(=O)O)C(=O)O)C(=O)NCC(=O)N[C@@H]([C@@H](C)O)C(=O)N[C@@H](C)C(=O)N[C@@H]([C@@H](C)O)C(=O)N1)[C@@H](C)O

Molecular target: T1, human amylin receptor 3 (hAMYR3), hCTR2 co-expressed with human receptor activity modifying protein 3 (hRAMP3) (human, UniProt P30988 25-474; O60896 24-148)
T1 sequence (looked up) 1: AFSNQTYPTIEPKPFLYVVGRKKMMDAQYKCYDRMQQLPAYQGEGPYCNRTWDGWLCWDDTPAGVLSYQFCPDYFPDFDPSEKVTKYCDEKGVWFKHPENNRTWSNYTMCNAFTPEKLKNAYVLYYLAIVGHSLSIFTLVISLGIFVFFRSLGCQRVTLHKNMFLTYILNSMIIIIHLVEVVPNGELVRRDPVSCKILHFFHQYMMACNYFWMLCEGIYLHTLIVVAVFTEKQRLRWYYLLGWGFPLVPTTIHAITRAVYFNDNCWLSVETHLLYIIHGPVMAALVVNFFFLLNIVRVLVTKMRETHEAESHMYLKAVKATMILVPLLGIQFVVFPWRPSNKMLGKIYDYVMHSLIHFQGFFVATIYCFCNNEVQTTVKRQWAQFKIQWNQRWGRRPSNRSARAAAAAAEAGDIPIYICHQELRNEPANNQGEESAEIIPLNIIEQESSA
T1 sequence (looked up) 2: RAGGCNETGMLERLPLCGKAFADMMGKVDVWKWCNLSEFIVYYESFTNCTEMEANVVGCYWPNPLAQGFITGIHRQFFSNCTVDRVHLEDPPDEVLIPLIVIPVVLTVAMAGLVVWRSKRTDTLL
Test: cell-based or functional assay

Binder	hAMYR3 EC50 (nM); cAMP induction [nM]
B1	0.094
B2	0.12
B3	0.59
B4	0.16
B5	0.13
B6	0.19
B7	0.13
